Test results taken from publication PMC8776730 (Nature Communications, 2022).

Tests used:
MIA PaCa-2 tumor = assay: In vivo photoacoustic imaging; parameters: species or system mice; conditions: 12 h after i.v. injection, 16 mg/kg
Description: The MIA PaCa-2 tumor-bearing mice were constructed for in vivo photoacoustic imaging of M1. After intravenously injected with M1 (16 mg/kg) through tail vein, the PA images of mice were acquired with MOST (mode: MOST invision 128) at 12 h post injection.
Supplementary Fig. 22∣ 3D reconstruction PA images of tumor-bearing mice injected with M1 (16 mg/kg) through tail
vein.PA images of mice were acquired with MOST (mode: MOST 128) at 12 h post injection.
(1 picture or pasted object on this page, not shown here)

MIA PaCa-2 cells = assay: Cellular imaging (CLSM) of FITC-labelled molecules; type: cell-based; conditions: FITC-labelled molecules, MIA PaCa-2 cells, 1 h incubation, CLSM
Description: To further confirm this hypothesis, the M1 and M2 were equally labeled by FITC for cell imaging (Fig. 5b). To simulate the dynamic physiological condition, the cell culture medium was replaced every 15 min. After 1 h of incubation with M1 and M2 at the same molecule molar concentration, there occurred significant differences between the two molecules (Fig. 5c). […] The huge difference can be explained by the fact that the secondary assembly rate broke the balance between the targeted ligand and receptor, and thus tended to a stable assembly interaction. The retention efficiency depended on the assembly rate constant Ka. Meanwhile, the rapid dynamic assembly of BIVA probe in situ around the cell membrane, and contributed to the efficient formation and retention of nanofibers on the cell profile. When the incubation time was delayed up to 2 h, some components could be endocytosed into the cells, but most of them were found on the membranes (Supplementary Fig. 18). […] Then, the isolated cells were collected and lysed, the extracted cell membrane fragments were stained with ThT. […] In order to verify the influence of the addition of the targeting module of the probe molecules, we explored the imaging of R-M1 and M4 on cells.
Fig. 5 The BIVA effect with enhanced targeting to pancreatic tumor cell for boundaries imaging. a Illustration of BIVA effect: active targeting and assembly/aggregate induced retention (AIR) effect. b Chemical structure of FITC labeling. c 2D and 3D confocal images of M2 with active targeting property and M1 with BIVA effect on MIA PaCa-2 cells after incubation for 1 h. d The distribution of M1 on MIA PaCa-2 cell. e ThT staining of the lysed cell membrane of MIA PaCa-2. f, Illustration of migration inhibition after treated by BIVA probe. g The image of the migrated cells after treatment of PBS (blank), M2, M4, and M1. Scale bar: 100 μm. h The pie diagram of quantitative statistical calculation of the migrated cells (blue) in different groups. The blank control was set as 100% migrated cells.
MIA PaCa-2 cells were digested with trypsin, counted with cell counting plate, diluted to 1 × 10^4 with DMEM medium, and 1 mL to 1 cm diameter confocal microscope dish was taken. The cells were incubated in […] atmosphere for 24 h. The medium containing M1 and M2 (50 μM) was replaced and incubated with the cells for 2 h. The cells were washed with PBS for 3 times. CLSM (Zeiss 710) was used to image cells under 40 × objective, excitation = 488 nm, and emission >520 nm.
Supplementary Fig. 19 ∣ CLSM images of Miapaca-2 cells treated with different molecules or M1 under different conditions. […]

[1] = test system: orthotopic pancreatic tumor (MIA PaCa-2); assay: Ex vivo organ biodistribution, orthotopic pancreatic tumor model; conditions: orthotopic tumor mice, i.v. 16 mg/kg, 12 h
Description: To evaluate the imaging property of BIVA probe, the orthotopic pancreatic tumor mice model was built. After intravenous injected M1 and M2 molecules with a dose of 16 mg/kg for 12 h, the mice were sacrificed. […] Then, all the important organs were dissected for ex vivo imaging. […] Upon the individual differences, we validated 6 mice under surgery to induce orthotopic tumor in pancreatic head. […] As known, the FAP-α was a membrane located protein, overexpressed on tumor associate fibroblast cell and pancreatic cell surface.

[2] = mouse, in vivo, iv, 16 mg/kg
[3] = parameters: species or system mice; conditions: mouse, in vivo, iv, 16 mg/kg
Description: The acute toxicity evaluation of M1 to mice were verified by blood biochemistry, hemograms, and histological analysis. The representative biomarkers of liver function included alanine aminotransferase (ALT), alkaline phosphatase (ALP), aspartate aminotransferase (AST), total protein (TP), and albumin concentration (ALB). […] In addition, the hematological assessment results including creatinine (CREA), white blood cells (WBC), red blood cells (RBC), hematocrit (HCT), mean corpuscular volume […], mean corpuscular hemoglobin […], mean corpuscular hemoglobin concentration (MCHC), red cell volume distribution width-coefficient of variation (RDW-CV), platelet (PLT)and mean platelet volume (MPV) were carried out (Fig. 8b). All the above indicators in PBS group and M1 group appeared normal, which was basically consistent with the normal range reported in the literature. Then the mice from PBS group and M1 group were sacrificed for the further histological section analysis of the significant organs. After Hematoxylin and Eosin (H&E) staining, the slices of heart, liver, spleen, lung, kidney, and pancreas were compared and evaluated (Fig. 8c).
Fig. 8 Acute toxicity evaluation. a Liver function indicators: alanine aminotransferase (ALT), alkaline phosphatase (ALP), aspartate aminotransferase (AST), total protein (TP) and albumin concentration (ALB). […] Staining: H&E; Injection dose of M1. (i.v. administration): 16 mg/kg; Administration time: 24 h. Scale bar 200 μm.
The female Balb/c nude mice (6–8 weeks, n = 3) were sacrificed for blood and major organs collection after treated with M1 at a dose of 16 mg/kg on the 24 h. The histology evaluation of major organs was performed by Google biotechnology (Wuhan) Co. LTD. The blood biochemistry and haematology analyses were carried out by Vital River Laboratory Animal Technology Co. Ltd.

Substance: mPEG-GPAKLVFFGC(IR783)GRGD [M1]
- accumulation in tumor by photoacoustic imaging (MIA PaCa-2 tumor): more accumulation in tumor than that of M2
- fluorescence signal on the cell membrane (MIA PaCa-2 cells): higher fluorescence retention rate on the cell membrane
- signal accumulation in tumor relative to M2 [1]: twice
- Average radiant efficiency, spleen ([1]; average of n = 3): 203.333 P/sec
- blood circulation half-life (t1/2) [2]: 1.83 ± 0.05 h
- hematological assessment (CREA, WBC, RBC, HCT, MCV, MCH, MCHC, RDW-CV, PLT, MPV) [3]: normal
- hepatic toxicity (ALT, ALP, AST, TP, ALB) [3]: no obvious hepatic toxicity
- organ damage in H&E slices of heart, liver, spleen, lung, kidney, pancreas [3]: no noticeable organ damage and tissue injury
